In paper PMC9938897:

How the values were obtained:
[1] = target: CvkRmut (R19A-R20A-Q23A-K40A-R42A-N66A) (Anabaena (Nostoc) sp. PCC 7120); assay: SEC; analytical gel filtration, Superdex 75 10/300 GL, 10 mM Tris-HCl pH 8.8, 100 mM NaCl, 2 mM beta-mercaptoethanol; ~500 uL untagged protein at ~0.6 mg/mL; calibrated with LMW standards; self-association (dimer)
[2] = target: CvkR (Alr3614) (Anabaena sp. PCC 7120) (UniProt A0ACD6B984); assay: DNase I footprinting; conditions: EMSA: 10 mM Tris-HCl pH 8.0, 25 mM MgCl2, 50 mM NaCl, 1 mM DTT, 1 mM EDTA, 50 ug/mL poly(dI-dC), 0.01% NP-40, 10% glycerol, 2 nM probe, 25 C 30 min …
[3] = target: CvkR (Alr3614), MerR-type transcriptional regulator of the Anabaena sp. PCC 7120 CAST system, 150-residue form CvkR-S (Anabaena (Nostoc) sp. PCC 7120); assay: SEC; analytical gel filtration, Superdex 75 10/300 GL, 10 mM Tris-HCl pH 8.8, 100 mM NaCl, 2 mM beta-mercaptoethanol; ~500 uL untagged protein at ~0.6 mg/mL; calibrated with LMW standards; self-association (dimer)
[4] = target: CvkR R42E (Anabaena (Nostoc) sp. PCC 7120); assay: as above

Chain of CvkR (Alr3614) (Anabaena sp. PCC 7120) (A0ACD6B984 entry or part of it): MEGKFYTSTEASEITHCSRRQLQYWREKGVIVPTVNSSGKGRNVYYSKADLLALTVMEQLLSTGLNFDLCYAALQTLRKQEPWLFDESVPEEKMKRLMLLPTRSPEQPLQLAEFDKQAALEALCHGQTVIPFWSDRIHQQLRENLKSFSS

For “CvkRmut (R19A-R20A-Q23A-K40A-R42A-N66A) (natural protein)”, the stoichiometry N [1] was 2.

For “AACTCCTTTCTCTCGCCAATACTGCAACTGGCGGCGAGAGCAATGAGTAATTTCTGATGCTTCTGTGCTTGTGTAGAACTTTCCTTCCATAAGAAACATCCTATAGAAGCATCTTCTAAAACACATTAGTGCTTTGTATAACATTATGTGTTTTGTATGGTATTTTATTTTTATGAGCCAAAAAACTATTCAATGTCGCTTAATTGCCAGTGAATCTACCCGCCAAAAACTCTGGAAGTTAATGGCAGAATCGAACACACCTCTAATTAACGAACTGCTTCAGCAGC (double strand) [Pcas12k footprint probe]”, the binding [2] was “binds”.

“CvkR (Alr3614), MerR-type transcriptional regulator of the Anabaena sp. PCC 7120 CAST system, 150-residue form CvkR-S (natural protein)” showed a stoichiometry N [3] of 2.

In the case of CvkR R42E (natural protein), the stoichiometry N [4] is reported as 2.
